{
  "source": "paper doi:10.1101/723213",
  "about": "(bioRxiv, 2019)",
  "binders": {"B1": {"name": "CENP-C_(1264-1411) (tag cleaved) (domain or fragment, Drosophila melanogaster, UniProt Q9VHP9 1264-1411, looked up)", "chain": "GPVVFSTPLRDEQEEASTKLMQWLRGVGDAPPSASMSDENASVSSANELIFCQVDGIDYAFYNTKEKAMLGYMRFKPYQKRSMKQAKVHPLKLLVQFGEFNVETLAVGEEKEVHSVLRVGDMIEIDRGTRYSIQNAIDKVSVLMCIRS"}},
  "key": {"CENP-A-GFP-LacI": {"molecular_target": "T1, CENP-A-GFP-LacI (Drosophila melanogaster, UniProt Q9V6Q2 1-225)", "T1 sequence (looked up)": "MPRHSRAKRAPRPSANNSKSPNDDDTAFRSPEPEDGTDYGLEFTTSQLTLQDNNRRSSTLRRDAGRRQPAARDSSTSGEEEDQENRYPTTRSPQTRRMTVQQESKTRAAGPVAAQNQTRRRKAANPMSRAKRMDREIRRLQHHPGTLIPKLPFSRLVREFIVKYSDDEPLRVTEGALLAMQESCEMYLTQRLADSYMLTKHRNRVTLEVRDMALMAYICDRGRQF", "assay": "LacO/LacI tethering assay in cells"}, "SEC-MALS": {"molecular_target": "the molecule itself", "assay": "SEC-MALS"}, "His-CAL1_(1-160)": {"molecular_target": "T2, His-CAL1_(1-160) (Drosophila melanogaster, UniProt Q9VEN2 1-160)", "T2 sequence (looked up)": "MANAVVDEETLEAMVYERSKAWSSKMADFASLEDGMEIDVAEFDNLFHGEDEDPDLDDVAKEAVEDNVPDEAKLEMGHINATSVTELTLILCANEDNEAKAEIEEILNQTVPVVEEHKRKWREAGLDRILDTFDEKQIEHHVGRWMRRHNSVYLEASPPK", "assay": "crystal structure"}, "Histone H4": {"molecular_target": "Histone H4 (Drosophila melanogaster, UniProt P84040 2-103)", "assay": "crystal structure"}, "[1]": {"molecular_target": "B1", "assay": "AUC"}, "[2]": {"molecular_target": "T3, CENP-A_(101-225)–H4 heterodimer (Drosophila melanogaster, UniProt Q9V6Q2 101-225; P84040 2-103)", "assay": "pull-down"}, "[3]": {"molecular_target": "T3, CENP-A_(101-225)–H4 heterodimer", "assay": "SEC-MALS"}},
  "data": [
    {"binder": "CAL1_(F43R)-V5 (natural protein, Drosophila melanogaster, UniProt Q9VEN2 1-979, looked up) MANAVVDEETLEAMVYERSKAWSSKMADFASLEDGMEIDVAERDNLFHGEDEDPDLDDVAKEAVEDNVPDEAKLEMGHINATSVTELTLILCANEDNEAKAEIEEILNQTVPVVEEHKRKWREAGLDRILDTFDEKQIEHHVGRWMRRHNSVYLEASPPKYLPPHHNSISDESDESMHSIDTARYIQQSRRRNAHMTNKNMTTIKMYRKHSHKRDELRAKYAYGDEQEHRHHMQAVLLRRRERERQLAYLASTPMQCVYSSGHHMRRKNLRKRRINSWMFDSASSSEEDTSFGGCDCHSCRRHYALSRSVYQSCPYGRGQREYHHRQMASRTMHTMRRQHTFDMEMDLRPRLPENECSCCNSDRLCSNVIHIANSSTEEWVVENRSNHLTQETQEKTRKQKHQPMDARKVSHQPVCSKGHEQKPLSSKATSVSKLVLSKEKYMQMFDSESSDEDNALAKKGLLCCSDKKKGMTFPTPNAAGKITHPTSSAKKAIRKEARPNGLAQIQEEGPTATNSPIESTYLPVAHMKSVSIDGSSGTSATFESPAKKAPKRGIRETSPLNGNELQQLISTIPIADEKASSLMEKVDNCIGRESFDDRNKDFMHMENSSTKTAVEKSTKQKRVSGKKSEIPKSIITNNEILEKNSTETLSEKQVAAKAKKQSVRKTGATGKPSTSRLKKSEKTKTTSSVTSTSKLEQVREEESDVSSEVLAKPKPQCSTTASILKQGGDGASNSEDDLQIALAMSKATYKEEQQKRKKTKREPSNKQPQSPAEKSMTVFNNQSVACNSTALANDTACYRVLPKRRGVKRAAAVSTTEEKTATNSSSSPTSSLEEMGSPTGGDPDCTVVTSTTGCEPPASERQEIPATIKITKRGILLHSPSAPEGASFTLTEQGLGKIIGERWARKYLKYHIGSRSFDSRHSVYYQPTPQLAAALSAPQDAQNIGNISGSSASDDDIFEQINRYGTVYSILENNSGDK", "values": [
      {"measurement": "fold reduction of the level co-localising with CENP-A, against CAL1 WT", "setting": "CENP-A-GFP-LacI", "result": 3, "unit": "fold"}
    ]},
    {"binder": "B1", "values": [
      {"measurement": "stoichiometry N", "setting": "SEC-MALS", "result": 2}
    ]},
    {"binder": "CENP-A_(101-225) (domain or fragment) QQESKTRAAGPVAAQNQTRRRKAANPMSRAKRMDREIRRLQHHPGTLIPKLPFSRLVREFIVKYSDDEPLRVTEGALLAMQESCEMYLTQRLADSYMLTKHRNRVTLEVRDMALMAYICDRGRQF", "values": [
      {"measurement": "binding result", "setting": "His-CAL1_(1-160)", "result": "binds"},
      {"measurement": "binding result", "setting": "Histone H4", "result": "binds"}
    ]},
    {"binder": "CAL1_(841-979) (untagged) (domain or fragment, Drosophila melanogaster, UniProt Q9VEN2 841-979, looked up) GGDPDCTVVTSTTGCEPPASERQEIPATIKITKRGILLHSPSAPEGASFTLTEQGLGKIIGERWARKYLKYHIGSRSFDSRHSVYYQPTPQLAAALSAPQDAQNIGNISGSSASDDDIFEQINRYGTVYSILENNSGDK", "values": [
      {"measurement": "stoichiometry N", "setting": "[1]", "result": 1, "unit": "CAL1 per CENP-C dimer"}
    ]},
    {"binder": "His-CAL1_(1-160) F43R (domain or fragment) MANAVVDEETLEAMVYERSKAWSSKMADFASLEDGMEIDVAERDNLFHGEDEDPDLDDVAKEAVEDNVPDEAKLEMGHINATSVTELTLILCANEDNEAKAEIEEILNQTVPVVEEHKRKWREAGLDRILDTFDEKQIEHHVGRWMRRHNSVYLEASPPK", "values": [
      {"measurement": "binding result", "setting": "[2]", "result": "binds"}
    ]},
    {"binder": "MANAVVDEETLEAMVYERSKAWSSKMADFASLEDGMEIDVAEFDNLFHGE (domain or fragment)", "note": "[His-CAL1_(1-50)]", "values": [
      {"measurement": "stoichiometry N", "setting": "[3]", "result": "1 CAL1 per CENP-A/H4 heterodimer"}
    ]}
  ]
}
